Experimental data: article PMC2191985 (The Journal of Experimental Medicine, 1995)

Assays:
[1] = target: 10-kD NH2-terminal fragment of the invariant chain (Ii-p10) (mouse); experiment: SEC + co-IP
SEC + co-IP = target: the molecule itself; experiment: SEC + co-IP

10-kD NH2-terminal fragment of the invariant chain (Ii-p10) (domain or fragment)
stoichiometry N [1]: 3

B1: intact invariant (Ii) chain (natural protein, mouse, UniProt P04441-2 1-215, looked up)
chain: MDDQRDLISNHEQLPILGNRPREPERCSRGALYTGVSVLVALLLAGQATTAYFLYQQQGRLDKLTITSQNLQLESLRMKLPKSAKPVSQMRMATPLLMRPMSMDNMLLGPVKNVTKYGNMTQDHVMHLLTRSGPLEYPQLKGTFPENLKHLKNSMDGVNWKIFESWMKQWLLFEMSKNSLEEKKPTEAPPKEPLDMEDLSSGLGVTRQELGQVTL
stoichiometry N (SEC + co-IP): 3
